Measurements: patent publication US20230357405A1

Molecular target: human PD-1 expressed on cells (CHO human PD-1 cells) (human) (UniProt Q15116)
Test: cell-based or functional assay

human PD-1 expressed on cells (CHO human PD-1 cells) (human), sequence (Q15116 21-288): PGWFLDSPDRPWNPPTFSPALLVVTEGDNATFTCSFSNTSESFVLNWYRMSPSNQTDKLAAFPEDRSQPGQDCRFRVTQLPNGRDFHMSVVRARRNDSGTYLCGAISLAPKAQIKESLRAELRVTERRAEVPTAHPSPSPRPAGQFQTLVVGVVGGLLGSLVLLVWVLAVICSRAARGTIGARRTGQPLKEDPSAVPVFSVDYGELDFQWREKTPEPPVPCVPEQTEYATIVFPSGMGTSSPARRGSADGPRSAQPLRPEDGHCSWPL

- EC50 (M); human PD-1 reporter gene assay: 1e-08 M
- EC50 (M); reporter assay: 1e-08 M
B1: 1.57-4GS-MSA binder (bispecific antibody, part only; not given: mouse serum albumin binding VH, part only)
chain, part: QVQLVESGGGLVKPGGSLRLSCAASGFTFSDNSMTWMRQAPGKGLEWVSYISSGGGVIFYADSVKGRFTISRDNAKNSLYLQMNSLRADDTAVYYCAREAPLRLGESPHDAFDISGQGTMVTVSSGGGGSGGGGSGGGGSGGGGS
